Assay [1] deals with T1, Flag-tagged CTC1 (wild type) (human, UniProt Q2NKJ3 1-1217).
T1 sequence (looked up): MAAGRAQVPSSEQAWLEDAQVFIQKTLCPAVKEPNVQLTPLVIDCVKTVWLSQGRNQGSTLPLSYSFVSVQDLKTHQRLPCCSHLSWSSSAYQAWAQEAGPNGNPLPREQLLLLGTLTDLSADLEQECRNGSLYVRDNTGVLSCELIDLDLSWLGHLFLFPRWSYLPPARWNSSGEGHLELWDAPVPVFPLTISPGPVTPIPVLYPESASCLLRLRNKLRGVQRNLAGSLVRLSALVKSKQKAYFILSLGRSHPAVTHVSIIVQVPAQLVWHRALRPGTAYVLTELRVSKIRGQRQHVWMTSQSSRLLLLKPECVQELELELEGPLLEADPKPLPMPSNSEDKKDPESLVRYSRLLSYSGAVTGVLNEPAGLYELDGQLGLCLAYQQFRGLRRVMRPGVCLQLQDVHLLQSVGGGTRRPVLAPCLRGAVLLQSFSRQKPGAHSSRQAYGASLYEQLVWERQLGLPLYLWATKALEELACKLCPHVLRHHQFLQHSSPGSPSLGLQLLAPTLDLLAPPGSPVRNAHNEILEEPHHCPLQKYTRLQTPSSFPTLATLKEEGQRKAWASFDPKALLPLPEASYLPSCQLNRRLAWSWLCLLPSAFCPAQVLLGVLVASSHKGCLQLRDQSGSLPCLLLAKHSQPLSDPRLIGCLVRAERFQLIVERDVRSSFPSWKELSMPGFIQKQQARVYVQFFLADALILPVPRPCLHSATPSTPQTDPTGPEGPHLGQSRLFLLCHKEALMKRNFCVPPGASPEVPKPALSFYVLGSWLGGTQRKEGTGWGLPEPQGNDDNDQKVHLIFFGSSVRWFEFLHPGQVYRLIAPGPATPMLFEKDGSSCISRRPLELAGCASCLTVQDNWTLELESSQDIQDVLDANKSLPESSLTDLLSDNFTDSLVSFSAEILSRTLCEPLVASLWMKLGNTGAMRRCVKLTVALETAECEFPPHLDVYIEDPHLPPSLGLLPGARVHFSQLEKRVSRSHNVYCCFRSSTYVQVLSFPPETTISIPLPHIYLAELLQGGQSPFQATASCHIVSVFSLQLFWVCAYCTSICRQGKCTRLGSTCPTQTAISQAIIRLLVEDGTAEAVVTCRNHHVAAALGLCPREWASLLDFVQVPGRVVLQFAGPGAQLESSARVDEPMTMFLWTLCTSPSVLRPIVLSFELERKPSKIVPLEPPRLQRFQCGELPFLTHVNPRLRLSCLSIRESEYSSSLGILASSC

Assay [2] addresses T1, Flag-tagged CTC1 (wild type). The experiment in a line: cell-based or functional assay.

In assay [1], “HA-tagged STN1 OB (N-terminal half-truncation) (domain or fragment)” came in with a half-life of Flag-CTC1 in HEK293T cells (CHX chase over 12 h) with HA-STN1OB of 8 h. Molecule “HA-tagged STN1 wHTH (C-terminal half-truncation) (domain or fragment)” showed a half-life of Flag-CTC1 in HEK293T cells (CHX chase over 12 h) with HA-STN1 wHTH in assay [1] of 5 h.

B1: HA-tagged STN1 (wild type) (natural protein, human, UniProt Q9H668 1-368, looked up)
chain: MQPGSSRCEEETPSLLWGLDPVFLAFAKLYIRDILDMKESRQVPGVFLYNGHPIKQVDVLGTVIGVRERDAFYSYGVDDSTGVINCICWKKLNTESVSAAPSAARELSLTSQLKKLQETIEQKTKIEIGDTIRVRGSIRTYREEREIHATTYYKVDDPVWNIQIARMLELPTIYRKVYDQPFHSSALEKEEALSNPGALDLPSLTSLLSEKAKEFLMENRVQSFYQQELEMVESLLSLANQPVIHSASSDQVNFKKDTTSKAIHSIFKNAIQLLQEKGLVFQKDDGFDNLYYVTREDKDLHRKIHRIIQQDCQKPNHMEKGCHFLHILACARLSIRPGLSEAVLQQVLELLEDQSDIVSTMEHYYTAF
In the case of B1, the “half-life of Flag-CTC1 in HEK293T cells (CHX chase over 12 h) with HA-STN1 WT” value in assay [2] was 10 h.

Values taken from article PMC12608094, “STN1 Shields CTC1 From TRIM32‐Mediated Ubiquitination to Prevent Cellular Aging” (Aging Cell, 2025).
